Reference: article PMC5177622, “Multivalent Histone and DNA Engagement by a PHD/BRD/PWWP Triple Reader Cassette Recruits ZMYND8 to K14ac-Rich Chromatin” (Cell Reports, 2016)

Target: Histone H3 acetylated at K14 (endogenous, HEK293), P68431
Assay: anti-FLAG immunoprecipitation and western blot, quantified
Details: chain shown with the change; HEK293 cells transiently transfected; three biological replicates; anti-H3K14ac blot; parent: est. 1.0; read off a plot

- ratio to parent: 0.19
B1: 3×FLAG-ZMYND8 full length, wild type, Q9ULU4-13 N228F (protein)
chain: MDISTRSKDPGSAERTAQKRKFPSPPHSSNGHSPQDTSTSPIKKKKKPGLLNSNNKEQSELRHGPFYYMKQPLTTDPVDVVPQDGRNDFYCWVCHREGQVLCCELCPRVYHAKCLRLTSEPEGDWFCPECEKITVAECIETQSKAMTMLTIEQLSYLLKFAIQKMKQPGTDAFQKPVPLEQHPDYAEYIFHPMDLCTLEKNAKKKMYGCTEAFLADAKWILHNCIIYFGGNHKLTQIAKVVIKICEHEMNEIEVCPECYLAACQKRDNWFCEPCSNPHPLVWAKLKGFPFWPAKALRDKDGQVDARFFGQHDRAWVPINNCYLMSKEIPFSVKKTKSIFNSAMQEMEVYVENIRRKFGVFNYSPFRTPYTPNSQYQMLLDPTNPSAGTAKIDKQEKVKLNFDMTASPKILMSKPVLSGGTGRRISLSDMPRSPMSTNSSVHTGSDVEQDAEKKATSSHFSASEESMDFLDKSTASPASTKTGQAGSLSGSPKPFSPQLSAPITTKTDKTSTTGSILNLNLDRSKAEMDLKELSESVQQQSTPVPLISPKRQIRSRFQLNLDKTIESCKAQLGINEISEDVYTAVEHSDSEDSEKSDSSDSEYISDDEQKSKNEPEDTEDKEGCQMDKEPSAVKKKPKPTNPVEIKEELKSTSPASEKADPGAVKDKASPEPEKDFSEKAKPSPHPIKDKLKGKDETDSPTVHLGLDSDSESELVIDLGEDHSGREGRKNKKEPKEPSPKQDVVGKTPPSTTVGSHSPPETPVLTRSSAQTSAAGATATTSTSSTVTVTAPAPAATGSPVKKQRPLLPKETAPAVQRVVWNSSSKFQTSSQKWHMQKMQRQQQQQQQQNQQQQPQSSQGTRYQTRQAVKAVQQKEITQSPSTSTITLVTSTQSSPLVTSSGSMSTLVSSVNADLPIATASADVAADIAKYTSKMMDAIKGTMTEIYNDLSKNTTGSTIAEIRRLRIEIEKLQWLHQQELSEMKHNLELTMAEMRQSLEQERDRLIAEVKKQLELEKQQAVDETKKKQWCANCKKEAIFYCCWNTSYCDYPCQQAHWPEHMKSCTQSATAPQQEADAEVNTETLNKSSQGSSSSTQSAPSETASASKEKETSAEKSKESGSTLDLSGSRETPSSILLGSNQGSDHSRSNKSSWSSSDEKRGSTRSDHNTSTSTKSLLPKESRLDTFWD
